Reference: patent US20230220071A1 (Hoffmann-La Roche, published 2023)

Target: T1, human transferrin receptor (BIAcore, construct not stated) (human, UniProt P02786 89-760)
T1 construct: also called huTfR
Test: SPR, 25 C

T1 sequence (P02786 89-760): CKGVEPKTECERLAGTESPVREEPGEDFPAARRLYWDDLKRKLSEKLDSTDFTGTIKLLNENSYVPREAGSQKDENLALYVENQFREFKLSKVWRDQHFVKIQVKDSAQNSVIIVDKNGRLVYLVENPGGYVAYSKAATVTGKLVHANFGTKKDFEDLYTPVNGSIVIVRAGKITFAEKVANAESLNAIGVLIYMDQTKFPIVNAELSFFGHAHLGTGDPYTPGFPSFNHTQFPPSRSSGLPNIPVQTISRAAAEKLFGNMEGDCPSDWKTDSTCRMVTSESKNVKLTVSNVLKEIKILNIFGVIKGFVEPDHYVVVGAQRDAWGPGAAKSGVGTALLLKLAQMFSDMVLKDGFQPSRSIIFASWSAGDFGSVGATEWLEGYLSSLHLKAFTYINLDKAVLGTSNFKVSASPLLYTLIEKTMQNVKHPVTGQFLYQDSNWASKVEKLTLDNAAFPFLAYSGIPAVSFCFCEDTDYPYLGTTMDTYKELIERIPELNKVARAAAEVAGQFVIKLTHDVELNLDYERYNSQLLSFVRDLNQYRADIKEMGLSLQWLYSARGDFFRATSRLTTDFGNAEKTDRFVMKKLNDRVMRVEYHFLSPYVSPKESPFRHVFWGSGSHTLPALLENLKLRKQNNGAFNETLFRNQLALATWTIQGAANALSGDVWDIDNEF

Binder | koff
clone 299 VH 0 (rb) / VL 5 (antibody, V domains shown) VH: QSMEESGGRLVTPGTPLTLTCTVSGFSLSSYAMSWVRQAPGKGLEWIGYIWSGGSTDYASWAKGRFTISKTSTTVDLKITSPTTEDTATYFCARRYGTSYPDYGDANGFDPWGPGTLVTVSS VL: DIQMTQSPSSLSASVGDRVTITCRASQSISSYLSWYQQKPGKAPKLLIYRASTLASGVPSRFSGSGSGTDFTLTISSLQPEDFATYYCQQSYSSSNVDNTFGGGTKVEIK | 0.00194 s⁻¹
clone 299 VH 0 (rb) / VL 14 (antibody, V domains shown) VH: QSMEESGGRLVTPGTPLTLTCTVSGFSLSSYAMSWVRQAPGKGLEWIGYIWSGGSTDYASWAKGRFTISKTSTTVDLKITSPTTEDTATYFCARRYGTSYPDYGDANGFDPWGPGTLVTVSS VL: DIVMTQSPDSLAVSLGERATINCKSSQSISSYLSWYQQKPGQRPKLLIYRASTLASGVPDRFSGSGSGTDFTLTISSLQAEDVAVYYCQQSYSSSNVDNTFGGGTKVEIK | 0.00178 s⁻¹
clone 299 VH 0 (rb) / VL 17 (antibody, V domains shown) VH: QSMEESGGRLVTPGTPLTLTCTVSGFSLSSYAMSWVRQAPGKGLEWIGYIWSGGSTDYASWAKGRFTISKTSTTVDLKITSPTTEDTATYFCARRYGTSYPDYGDANGFDPWGPGTLVTVSS VL: AIQLTQSPSSLSASVGDRVTITCRASQSISSYLAWYQQKPGKAPKLLIYRASTLASGVPSRFSGSGSGTDFTLTISSLQPEDFATYYCQQTYSSSNVDNTFGGGTKVEIK | 0.00149 s⁻¹
clone 299 VH 12 / VL 9-NYA (antibody, V domains shown) VH: QVQLQESGPGLVKPSETLSLTCTVSGFSLSSYAMSWIRQPPGKGLEWIGYIWSGGSTDYNPSLKSRVTISVDTSKNQFSLKLSSVTAADTAVYYCARRYGTSYPDYGDANGFDPWGQGTLVTVSS VL: AIQLTQSPSSLSASVGDRVTITCRASQSISSYLAWYQQKPGKAPKLLIYRASTLASGVPSRFSGSGSGTDFTLTISSLQPEDFATYYCQQNYASSNVDNTFGGGTKVEIK | 0.00219 s⁻¹
clone 299 VH 0 (rb) / VL 15 (antibody, V domains shown) VH: QSMEESGGRLVTPGTPLTLTCTVSGFSLSSYAMSWVRQAPGKGLEWIGYIWSGGSTDYASWAKGRFTISKTSTTVDLKITSPTTEDTATYFCARRYGTSYPDYGDANGFDPWGPGTLVTVSS VL: DIVMTQSPDSLAVSLGERATINCKSSQSISSYLIWYQQKPGQPPKLLIYRASTLASGVPDRFSGSGSGTDFTLTISSLQAEDVAVYYCQQAYSSSNVDNTFGGGTKVEIK | 0.00663 s⁻¹
clone 299 VH 0 (rb) / VL 7 (antibody, V domains shown) VH: QSMEESGGRLVTPGTPLTLTCTVSGFSLSSYAMSWVRQAPGKGLEWIGYIWSGGSTDYASWAKGRFTISKTSTTVDLKITSPTTEDTATYFCARRYGTSYPDYGDANGFDPWGPGTLVTVSS VL: AIQLTQSPSSLSASVGDRVTITCRASQSISSYLAWYQQKPGKAPKLLIYRASTLASGVPSRFSGSGSGTDFTLTISSLQPEDFATYYCQQSYSSSNVDNTFGGGTKVEIK | 0.00463 s⁻¹
clone 299 VH 0 (rb) / VL 12 (antibody, V domains shown) VH: QSMEESGGRLVTPGTPLTLTCTVSGFSLSSYAMSWVRQAPGKGLEWIGYIWSGGSTDYASWAKGRFTISKTSTTVDLKITSPTTEDTATYFCARRYGTSYPDYGDANGFDPWGPGTLVTVSS VL: DIQMTQSPSSLSASVGDRVTITCRASQSISSYLAWYQQKPGKAPKLLIYRASTLASGVPSRFSGSRSGTDFTLTISSLQPEDFATYYCQQHYSSSNVDNTFGGGTKVEIK | 0.00541 s⁻¹
clone 299 VH 0 (rb) / VL 10 (antibody, V domains shown) VH: QSMEESGGRLVTPGTPLTLTCTVSGFSLSSYAMSWVRQAPGKGLEWIGYIWSGGSTDYASWAKGRFTISKTSTTVDLKITSPTTEDTATYFCARRYGTSYPDYGDANGFDPWGPGTLVTVSS VL: DIQMTQSPSSLSASVGDRVTITCRASQSISSYLSWYQQKPGKAPKLLIYRASTLASGVPSRFSGSRSGTDFTLTISSLQPEDFATYYCQQSYSSSNVDNTFGGGTKVEIK | 0.00188 s⁻¹
clone 299 VH 18 / VL 9-NYA (antibody, V domains shown) VH: QVQLQESGPGLVKPSQTLSLTCTVSGFSLSSYAMSWIRQHPGKGLEWIGYIWSGGSTDYAPSLKSRVTISVDTSKNQFSLKLSSVTAADTAVYYCARRYGTSYPDYGDANGFDPWGQGTLVTVSS VL: AIQLTQSPSSLSASVGDRVTITCRASQSISSYLAWYQQKPGKAPKLLIYRASTLASGVPSRFSGSGSGTDFTLTISSLQPEDFATYYCQQNYASSNVDNTFGGGTKVEIK | 0.00221 s⁻¹
clone 299 VH 20 / VL 0 (rb) (antibody, V domains shown) VH: QSMQESGPGLVKPSQTLSLTCTVSGFSLSSYAMSWIRQHPGKGLEWIGYIWSGGSTDYAPSLKSRVTISVDTSKNQVSLKLSSVTAADTAVYYCARRYGTSYPDYGDANGFDPWGQGTLVTVSS VL: AYDMTQTPASVEVAVGGTVTIKCQASQSISSYLSWYQQKPGQRPKLLIYRASTLASGVSSRFKGSGSGTQFTLTISGVECADAATYYCQQCYSSSNVDNTFGGGTEVVVK | 0.00111 s⁻¹
clone 299 VH 12 / VL 0 (rb) (antibody, V domains shown) VH: QVQLQESGPGLVKPSETLSLTCTVSGFSLSSYAMSWIRQPPGKGLEWIGYIWSGGSTDYNPSLKSRVTISVDTSKNQFSLKLSSVTAADTAVYYCARRYGTSYPDYGDANGFDPWGQGTLVTVSS VL: AYDMTQTPASVEVAVGGTVTIKCQASQSISSYLSWYQQKPGQRPKLLIYRASTLASGVSSRFKGSGSGTQFTLTISGVECADAATYYCQQCYSSSNVDNTFGGGTEVVVK | 0.000921 s⁻¹
clone 299 VH 21 / VL 0 (rb) (antibody, V domains shown) VH: QSMQESGPGLVKPSQTLSLTCTVSGFSLSSYAMSWIRQHPGKGLEWIGYIWSGGSTDYASWAKSRVTISVDTSKNQVSLKLSSVTAADTAVYYCARRYGTSYPDYGDANGFDPWGQGTLVTVSS VL: AYDMTQTPASVEVAVGGTVTIKCQASQSISSYLSWYQQKPGQRPKLLIYRASTLASGVSSRFKGSGSGTQFTLTISGVECADAATYYCQQCYSSSNVDNTFGGGTEVVVK | 0.000565 s⁻¹
clone 299 VH 17 / VL 0 (rb) (antibody, V domains shown) VH: QQLQESGPGLVKPSETLSLTCTVSGFSLSSYAMSWVRQPPGKGLEWIGYIWSGGSTDYNPSLKSRVTISKDTSKNQVSLKLSSVTAADTAVYYCARRYGTSYPDYGDANGFDPWGPGTLVTVSS VL: AYDMTQTPASVEVAVGGTVTIKCQASQSISSYLSWYQQKPGQRPKLLIYRASTLASGVSSRFKGSGSGTQFTLTISGVECADAATYYCQQCYSSSNVDNTFGGGTEVVVK | 0.000413 s⁻¹
clone 299 VH 15 / VL 0 (rb) (antibody, V domains shown) VH: QQLQESGPGLVKPSETLSLTCTVSGFSLSSYAMSWVRQPPGKGLEWIGYIWSGGSTDYNPSLKSRVTISVDTSKNQVSLKLSSVTAADTAVYYCARRYGTSYPDYGDANGFDPWGQGTLVTVSS VL: AYDMTQTPASVEVAVGGTVTIKCQASQSISSYLSWYQQKPGQRPKLLIYRASTLASGVSSRFKGSGSGTQFTLTISGVECADAATYYCQQCYSSSNVDNTFGGGTEVVVK | 0.000763 s⁻¹

Further lines, results first:

koff | Binder
0.00139 s⁻¹ | clone 299 VH 13 / VL 9-NYA (antibody, V domains shown) VH: QVQLQESGPGLVKPSETLSLTCTVSGFSLSSYAMSWIRQPPGKGLEWIGYIWSGGSTDYNPSLKSRVTISVDTSKNQVSLKLSSVTAADTAVYYCARRYGTSYPDYGDANGFDPWGQGTLVTVSS VL: AIQLTQSPSSLSASVGDRVTITCRASQSISSYLAWYQQKPGKAPKLLIYRASTLASGVPSRFSGSGSGTDFTLTISSLQPEDFATYYCQQNYASSNVDNTFGGGTKVEIK
0.00252 s⁻¹ | clone 299 VH 9 / VL 9-NYA (antibody, V domains shown) VH: QQLLESGGGLVQPGGSLRLSCAASGFTFSSYAMSWVRQAPGKGLEWVGYIWSGGSTDYADSVKGRFTISRDNSKNTLYLQMNSLRAEDTAVYYCAKRYGTSYPDYGDANGFDPWGQGTLVTVSS VL: AIQLTQSPSSLSASVGDRVTITCRASQSISSYLAWYQQKPGKAPKLLIYRASTLASGVPSRFSGSGSGTDFTLTISSLQPEDFATYYCQQNYASSNVDNTFGGGTKVEIK
0.00242 s⁻¹ | clone 299 VH 11 / VL 9-NYA (antibody, V domains shown) VH: QQLLESGGGLVQPGGSLRLSCAASGFSLSSYAMSWVRQAPGKGLEWVGYIWSGGSTDYADSVKGRFTISRDNSKNTLYLQMNSLRAEDTAVYYCARRYGTSYPDYGDANGFDPWGQGTLVTVSS VL: AIQLTQSPSSLSASVGDRVTITCRASQSISSYLAWYQQKPGKAPKLLIYRASTLASGVPSRFSGSGSGTDFTLTISSLQPEDFATYYCQQNYASSNVDNTFGGGTKVEIK
0.00139 s⁻¹ | clone 299 VH 0 (rb) / VL 8 (antibody, V domains shown) VH: QSMEESGGRLVTPGTPLTLTCTVSGFSLSSYAMSWVRQAPGKGLEWIGYIWSGGSTDYASWAKGRFTISKTSTTVDLKITSPTTEDTATYFCARRYGTSYPDYGDANGFDPWGPGTLVTVSS VL: AYQLTQSPSSLSASVGDRVTITCRASQSISSYLSWYQQKPGKAPKLLIYRASTLASGVPSRFSGSGSGTDFTLTISSLQPEDFATYYCQQSYSSSNVDNTFGGGTKVEIK
0.0019 s⁻¹ | clone 299 VH 0 (rb) / VL 6 (antibody, V domains shown) VH: QSMEESGGRLVTPGTPLTLTCTVSGFSLSSYAMSWVRQAPGKGLEWIGYIWSGGSTDYASWAKGRFTISKTSTTVDLKITSPTTEDTATYFCARRYGTSYPDYGDANGFDPWGPGTLVTVSS VL: AIQLTQSPSSLSASVGDRVTITCRASQSISSYLSWYQQKPGKAPKLLIYRASTLASGVPSRFSGSGSGTDFTLTISSLQPEDFATYYCQQSYSSSNVDNTFGGGTKVEIK
0.000506 s⁻¹ | clone 299 VH 22 / VL 0 (rb) (antibody, V domains shown) VH: QSMQESGPGLVKPSQTLSLTCTVSGFSLSSYAMSWVRQHPGKGLEWIGYIWSGGSTDYASWAKSRVTISVDTSKNQVSLKLSSVTAADTAVYYCARRYGTSYPDYGDANGFDPWGQGTLVTVSS VL: AYDMTQTPASVEVAVGGTVTIKCQASQSISSYLSWYQQKPGQRPKLLIYRASTLASGVSSRFKGSGSGTQFTLTISGVECADAATYYCQQCYSSSNVDNTFGGGTEVVVK
0.000653 s⁻¹ | clone 299 VH 16 / VL 0 (rb) (antibody, V domains shown) VH: QQLQESGPGLVKPSETLSLTCTVSGFSLSSYAMSWVRQPPGKGLEWIGYIWSGGSTDYNPSLKSRVTISVDTSKNQVSLKLSSVTAADTAVYYCARRYGTSYPDYGDANGFDPWGPGTLVTVSS VL: AYDMTQTPASVEVAVGGTVTIKCQASQSISSYLSWYQQKPGQRPKLLIYRASTLASGVSSRFKGSGSGTQFTLTISGVECADAATYYCQQCYSSSNVDNTFGGGTEVVVK
0.001 s⁻¹ | clone 299 VH 19 / VL 0 (rb) (antibody, V domains shown) VH: QSMQESGPGLVKPSQTLSLTCTVSGFSLSSYAMSWIRQHPGKGLEWIGYIWSGGSTDYAPSLKSRVTISVDTSKNQFSLKLSSVTAADTAVYYCARRYGTSYPDYGDANGFDPWGQGTLVTVSS VL: AYDMTQTPASVEVAVGGTVTIKCQASQSISSYLSWYQQKPGQRPKLLIYRASTLASGVSSRFKGSGSGTQFTLTISGVECADAATYYCQQCYSSSNVDNTFGGGTEVVVK
